{"source": "paper PMC7343221", "about": "(Nature structural & molecular biology, 2020)", "target": "the molecule itself", "assay": "cryo-EM structure", "data": [{"protein": "N-terminal IST1 R16E/K27E mutant (IST1NTD^R16E/K27E) (domain or fragment, human, UniProt P53990 1-189, looked up) MLGSGFKAERLRVNLELVINRLKLLEEKKTELAQKARKEIADYLAAGKDERARIRVEHIIREDYLVEAMEILELYCDLLLARFGLIQSMKELDSGLAESVSTLIWAAPRLQSEVAELKIVADQLCAKYSKEYGKLCRTNQIGTVNDRLMHKLSVEAPPKILVERYLIEIAKNYNVPYEPDSVVMAEAPP", "values": [{"measurement": "binding result", "value": "binds"}]}]}
